The source of these data is PMC8558179, “The C-terminal peptide of CCL21 drastically augments CCL21 activity through the dendritic cell lymph node homing receptor CCR7 by interaction with the receptor N-terminus” (Cellular and Molecular Life Sciences: CMLS, 2021).

Assay [1] concerns human moDCs naturally expressing CCR7. Kind of assay: 3D chemotaxis, time-lapse recording of human moDCs in Collagen I (chemotactic index). It counts as cell-based. As to conditions: human moDCs; for boosting of CCL21-induced DC chemotaxis: 10 nM CCL21, peptide 10 µM (0.1–10 µM in the dose series). As for the experimental part:
Buffy coats were obtained from Rigshospitalet Copenhagen, as anonymous material, with written informed consent from the donors. The local ethics committee at Faculty of Health and Medical Sciences at the University of Copenhagen (Research Ethics Committee for Sund and Science, University of Copenhagen) found the project exempt from approval. DCs were prepared from human peripheral blood mononuclear cells (PBMC) isolated from buffy coats by centrifugation on a Lymphoprep gradient as previously described. Briefly, monocytes were isolated by plastic adherence of PBMC. Adhered monocytes were subsequently cultured and differentiated into immature DCs by incubation with IL-4 (250 U/ml) and GM-CSF (1000 U/ml) for 6 days, followed by activation into mature DCs by incubation with IL-6 (1000 U/ml), IL-1β (1000 U/ml), TNF-α (1000 U/ml), and PGE2 (1 µg/ml) for an additional 2 days in the same medium.
(§1) Human DCs were cultured in X-vivo 15 medium with 2% human AB serum and glutamine. CHO-K1 pgsB-618 ATCC® CRL2241™ [24] and CHO-K1 cells were grown in RPMI with 10% FBS and Penicillin/Streptomycin. HS^−/− (CHO EXTL 2/3 −/−), CS^−/− (CSGALNACT 1/2^−/− CHSY1^−/−), 5xKO (GalNAc-T1, 2, 4, 7 and 10 −/−) and WT CHO suspension cells were grown in suspension in 1:1 of EX-Cell CD CHO fusion media and Balanced CD CHO growth A medium supplemented with 2% glutamine and Penicillin/Streptomycin. Cells were kept in a humidified incubator at 37 °C, 5% CO2.
Chemotaxis assays were conducted as previously described. Briefly, mature human moDCs were left to acclimatize in medium for 30 min at room temperature (RT) upon defrosting, before assay start. DCs were seeded in Bovine Collagen I mixture prepared by mixing 10 µl Na2HCO3 (7.5%), 20 µl MEM (10×), 150 µl PureCol and 90 µl DCs dissolved in X-vivo 15 medium (2 × 10^6 cells/ml). After incubation for 45 min in a humidified incubator at 37 °C (5% CO2), the source and sink reservoirs were filled according to the manufacturer’s instructions and chemotaxis was tracked in a time-lapse microscope with a humidified temperature controlled stage incubator for 12 h at a 2 min interval. Cell migration (approximately 20–40 cells per viewing field) was tracked using a commercial tracking program (Autozell) and subsequently analyzed to get a population-based chemotactic index (CI) value (MATLAB). CI is a measure of net translocation distance to the source relative to total distance traveled and was thus calculated as the ratio of the distance traveled in the direction of the gradient over the total distance traveled and therefore is a conservative measure of the directedness of cell migration.

The target of assay [2] is T1, human CCR7 (Homo sapiens, UniProt P32248).
T1 construct: CCR7 contains a 24-residue long signal peptide cleaved of from the mature protein; expressed in transfected cells; host or cells: CHO cells (CHO-K1, CHO suspension WT, GAG-deficient and 5xKO GalNAc-T knockout lines), transient transfection
T1 sequence (P32248 25-378): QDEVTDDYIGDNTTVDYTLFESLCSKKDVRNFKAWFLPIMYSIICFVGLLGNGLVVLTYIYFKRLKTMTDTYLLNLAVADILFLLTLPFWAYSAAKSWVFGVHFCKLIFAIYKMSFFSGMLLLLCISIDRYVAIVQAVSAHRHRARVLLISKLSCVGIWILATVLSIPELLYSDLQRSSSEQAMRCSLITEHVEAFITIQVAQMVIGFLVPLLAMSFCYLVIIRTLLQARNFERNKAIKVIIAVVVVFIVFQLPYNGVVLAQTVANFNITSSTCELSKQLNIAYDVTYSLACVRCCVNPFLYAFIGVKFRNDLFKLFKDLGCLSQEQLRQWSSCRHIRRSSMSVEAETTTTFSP
The experiment in a line: Gαi signaling, BRET-based cAMP (CAMYEL) assay at CCR7 in CHO cells. It is filed as cell-based. Particulars: for boosting of CCL21-induced Gαi signaling: CCL21 + 10 µM peptide, BRET cAMP, n = 3–8. As for the experimental part: as §1
(§2) For cAMP assays, adherent CHO cells were transfected using lipofectamine while suspension cells were transfected using the FectoPro method. Cells were seeded in a 6-well plate, either 500,000 (adherent cells) or 200,000 (suspension cells) cells/well. The next day the cells were transiently transfected with vectors encoding the human CCR7 and CAMYEL sensor (cAMP sensor using YFP-Epac-RLuc) in a 1:5 ratio using lipofectamine (6 µl/well) or FectoPro (4 µl/well). Lipofectamine transfections were terminated by changing to 2 ml fresh cultivation medium after 5 h, while Fectopro transfection was terminated after 3 h by adding 2.5 ml fresh cultivation medium and 2 µl FectoPro Boost reagent per well. The cells were incubated under standard cultivation conditions overnight. For β-arrestin recruitment assays, cells were transfected with CCR7 and vectors expressing a Renilla luciferase arrestin3 fusion protein and membrane-SH3-citrine protein. The cells were then resuspended in PBS w/glucose and seeded in 96-well white iso plates (~ 25,000 cells/well). Coelenterazine (bioluminescence substrate) was added to a final conc. of 5 µM. After 10 min, cells were stimulated with varying ligand concentrations for a total of 40 min. Forskolin was added to each well 5 min after ligand addition to reach a final conc. of 5 µM. The plates were kept in the dark at all times. Emission signal from Rluc and eYFP was measured using the Envision machine at 530 and 480 nm and the BRET signal determined as the ratio between (eYFP/Rluc).
A general note: In BRET a luciferase serves as donor, and the signal depends on an acceptor being close.

The next assay relates to CCR7. Particulars: allosteric antagonist, cytosolic site; cited from earlier work. An excerpt:
In the absence of peptide, CCL19 and CCL21 contact CCR7 in different manners. The interaction of CCL21 depends on residues in the top of TM-3, -4 and -5 that are not important for CCL19 interaction with CCR7. The binding of these two chemokines induce different structural changes in CCR7 to disrupt old and create new hydrogen bonds. CCL21 binding to CCR7 is believed to involve movements within the majority of helical domains (TM2, -3, -4, -5, -6, and -7), whereas the changes induced by CCL19 are restricted to regions of TM3, -5, and -6 [37]. The conformational changes in CCR7 ind ...

The target of assay [3] is T1, human CCR7. Kind of assay: β-arrestin recruitment, BRET-based assay at CCR7. It counts as cell-based. As to conditions: no peptide, n = 4. As for the experimental part: as §2
In general terms: Arrestin recruitment assays detect the binding of arrestin to an activated receptor.

In assay [4] the target is T2, CCR7^−O (CCR7 T37/38/42A) (Homo sapiens, UniProt P32248, T37A/T38A/T42A).
T2 construct: CCR7 contains a 24-residue long signal peptide cleaved of from the mature protein; expressed in transfected cells; host or cells: CHO cells, transient transfection
T2 sequence (P32248 25-378 T37A/T38A/T42A): T1 sequence (P32248 25-378) with T13A, T14A, T18A
Kind of assay: Gαi signaling, BRET cAMP assay, CCR7 lacking N-terminal O-glycosylation sites. It counts as cell-based. Particulars: no peptide, CCR7^−O vs WT CCR7. On the procedure: O-glycosylation deficient CCR7 was generated from WT through Quick change PCR using the following primers: […]
as §2

Substitutions are numbered along the chain they refer to.

For the compound “TP91-111: C21TP reduced N-terminally by 20 aa (KKGKGSKGCKRTERSQTPKGP; UniProt O00585 114-134, looked up, fragment)”, the “boosting of CCL21-induced DC chemotaxis” value in assay [1] is on record as “retaining boosting ability”. The “boosting of CCL21-induced Gαi signaling” value with human CCR7 [2] (CHO cells) is reported as “retaining boosting ability”.

For the compound `Cc1ccc(C(NC2=NS(=O)(=O)N=C2Nc2ccc(C)c(C(=O)N(C)C)c2O)C(C)(C)C)o1` (centres unmarked) [Cmp2105], in the assay with CCR7, the “competition with CCL19 binding to CCR7” value was “outcompetes CCL19 binding to CCR7”.

For the compound “CCL19: endogenous chemokine, CCR7 ligand, from R&D Systems”, in assay [1] (10 nM chemokine, no peptide), the “chemotaxis towards chemokine alone” value is listed as “strong migratory signal”. Moreover, the “pEC50, β-arrestin recruitment, chemokine alone” value with human CCR7 [3] is given as 7.11. In addition, the “chemokine activity on its own at CCR7^−O” value in assay [4] was “without affecting basal CCR7 activation via CCL19 and CCL21”. The “chemokine signaling in O-glycosylation-deficient 5xKO cells” value in the assay with human CCR7 [2] (CHO 5xKO vs WT, CCL21 alone, CCL19 in absence or presence of C21TP) is “only slightly impaired”. For the same compound, the “pEC50, Gαi signaling, chemokine alone” value in the assay with human CCR7 [2] (no peptide, CHO cells, forskolin 5 µM, n = 4) is 7.94.

Consider “TP81-102: C-terminally truncated version of TP81-111 (RKDRGASKTGKKGKGSKGCKRT; UniProt O00585 104-125, looked up, fragment)”, for which the “boosting of CCL21-induced DC chemotaxis” value in assay [1] is given as “conserved boosting effects”. Also, in the assay with human CCR7 [2] (CHO cells), the “boosting of CCL21-induced Gαi signaling” value is given as “conserved boosting effects”.

For “TP81-97: C-terminally truncated version of TP81-111 (RKDRGASKTGKKGKGSK; UniProt O00585 104-120, looked up, fragment)”, the “boosting of CCL21-induced DC chemotaxis” value in assay [1] is given as “blunted chemotaxis boosting ability”. In addition, in the assay with human CCR7 [2] (CHO cells), the “boosting of CCL21-induced Gαi signaling” value is reported as “reduced signaling via cAMP”.

Take “TP81-111: naturally occurring peptide generated upon plasmin cleavage of CCL21 (RKDRGASKTGKKGKGSKGCKRTERSQTPKGP; UniProt O00585 104-134, looked up, fragment)”: in assay [1], the “boosting of CCL21-induced DC chemotaxis” value is recorded as “at least to the same extent as TP71-111”. For the same compound, the “boosting of CCL21-induced Gαi signaling” value with human CCR7 [2] (CHO cells) is listed as “boosted even more”.
